Paper PMC8727931

B1: His-tagged GABARAP [not stated] / GST-FAM134B [not stated] (parent)
chain 1: MKFVYKEEHPFEKRRSEGEKIRKKYPDRVPVIVEKAPKARIGDLDKKKYLVPSDLTVGQFYFLIRKRIHLRAEDALFFFVNNVIPPTSATMGQLYQEHHEEDFFLYIAYSDESVYGL
chain 2: EGDDFELLDQSELDQIESELGLTQDQ

Variants of: B1
Assay: competitive GST pull-down (gel band quantification)
Settings: with GST-FAM134B; competition with MBP-LC3A K30R in the same reaction; n = 3; read off a plot

Row | ratio to parent | Variant
1 | 0.87 | chain 1 R28K

Same assay, conditions: with GST-FAM134B; competition with MBP-LC3A K65F in the same reaction; n = 3; read off a plot

Row | ratio to parent | Variant
2 | 1.05 | chain 1 F62K

Same assay, conditions: with GST-FAM134B; competition with MBP-LC3A H57D in the same reaction; n = 3; read off a plot

Row | ratio to parent | Variant
3 | 1.05 | chain 1 D54H

Same assay, conditions: with GST-FAM134B; competition with MBP-LC3A H27Y in the same reaction; n = 3; read off a plot

Row | ratio to parent | Variant
4 | 0.89 | chain 1 Y25H
